8 sequences from the supplement of paper PMC5998384 can be followed below.

Data set [1] deals with HeLa Kyoto. Put plainly: solubility in G1/S (NP-40 vs SDS abundance) (log2 ratio); higher = more soluble. As to conditions: cell cycle stage: G1/S.
Data set [2] deals with HeLa Kyoto. Put plainly: melting temperature (median over replicates), in situ; higher = more thermally stable.
For data set [3], the system named is HeLa Kyoto. Put plainly: solubility change mitosis vs G1/S (difference of NP-40 vs SDS log2 ratios) (log2 ratio difference); higher = more soluble in mitosis.
Data set [4] deals with HeLa Kyoto. Put plainly: thermal stability score vs G1/S (z-score of summed log2 fold changes over temperatures); higher = more thermally stable than in G1/S.
Setting [5] is: cell cycle stage: early G1 (4.5 h after nocodazole release).
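Throughout, for melting temperature (median over replicates), in situ: HeLa Kyoto cells synchronized by double thymidine or nocodazole block, proteins quantified by TMT10plex mass spectrometry, three independent biological replicates.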
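Throughout, for solubility change mitosis vs G1/S (difference of NP-40 vs SDS log2 ratios): synchronized HeLa Kyoto cells (double thymidine block for G1/S, nocodazole release for mitosis), protein amounts in NP-40 versus SDS lysates quantified by mass spectrometry, three biological replicates.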
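Throughout, for solubility in G1/S (NP-40 vs SDS abundance): HeLa Kyoto cells arrested at G1/S by double thymidine block, proteins quantified by TMT10plex mass spectrometry in mild NP-40 versus SDS extracts, three biological replicates.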
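Throughout, for thermal stability score vs G1/S (z-score of summed log2 fold changes over temperatures): synchronized HeLa Kyoto cells, proteins quantified by TMT10plex mass spectrometry, three biological replicates, mitosis taken 0.5 h after nocodazole release, G1/S directly after double thymidine block.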

In the case of “MESNKDEAERCISIALKAIQSNQPDRALRFLEKAQRLYPTPRVRALIESLNQKPQTAGDQPPPTDTTHATHRKAGGTDAPSANGEAGGESTKGYTAEQVAAVKRVKQCKDYYEILGVSRGASDEDLKKAYRRLALKFHPDKNHAPGATEAFKAIGTAYAVLSNPEKRKQYDQFGDDKSQAARHGHGHGDFHRGFEADISPEDLFNMFFGGGFPSSNVHVYSNGRMRYTYQQRQDRRDNQGDGGLGVFVQLMPILILILVSALSQLMVSSPPYSLSPRPSVGHIHRRVTDHLGVVYYVGDTFSEEYTGSSLKTVERNVEDDYIANLRNNCWKEKQQKEGLLYRARYFGDTDMYHRAQKMGTPSCSRLSEVQASLHG [DNAJB12]”, the “solubility in G1/S (log2)” value in the data set with HeLa Kyoto [1] was 0.104. In addition, the melting temperature is 49.4 °C in the data set with HeLa Kyoto [2] (cell cycle stage: G1/S) and 50.4 °C with HeLa Kyoto [2] (cell cycle stage: mitosis). Also, in the data set on HeLa Kyoto [3], the “solubility change mitosis (log2)” value is -0.00489. For the same sequence, the thermal stability score with HeLa Kyoto [4] (setting [5]) is 2.37; in the data set with HeLa Kyoto [4] (cell cycle stage: mitosis), 0.328.
For the sequence “MAGSSEEAPDYGRGVVIMDDWPGYDLNLFTYPQHYYGDLEYVLIPHGIIVDRIERLAKDIMKDIGYSDIMVLCVLKGGYKFCADLVEHLKNISRNSDRFVSMKVDFIRLKSYRNDQSMGEMQIIGGDDLSTLAGKNVLIVEDVVGTGRTMKALLSNIEKYKPNMIKVASLLVKRTSRSDGFRPDYAGFEIPNLFVVGYALDYNEYFRDLNHICVINEHGKEKYRV [PRTFDC1]”, the “solubility in G1/S (log2)” value with HeLa Kyoto [1] is -0.298. The melting temperature in the data set on HeLa Kyoto [2] (cell cycle stage: G1/S) is 56.5 °C; with HeLa Kyoto [2] (cell cycle stage: mitosis), 55.5 °C. The “solubility change mitosis (log2)” value with HeLa Kyoto [3] was -0.113. Also, the values for the thermal stability score with HeLa Kyoto [4] (setting [5]) and in the data set on HeLa Kyoto [4] (cell cycle stage: mitosis) were -0.858 and -0.334, respectively.
“MPLLFLERFPWPSLRTYTGLSGLALLGTIISAYRALSQPEAGPGEPDQLTASLQPEPPAPARPSAGGPRARDVAQYLLSDSLFVWVLVNTACCVLMLVAKLIQCIVFGPLRVSERQHLKDKFWNFIFYKFIFIFGVLNVQTVEEVVMWCLWFAGLVFLHLMVQLCKDRFEYLSFSPTTPMSSHGRVLSLLVAMLLSCCGLAAVCSITGYTHGMHTLAFMAAESLLVTVRTAHVILRYVIHLWDLNHEGTWEGKGTYVYYTDFVMELTLLSLDLMHHIHMLLFGNIWLSMASLVIFMQLRYLFHEVQRRIRRHKNYLRVVGNMEARFAVATPEELAVNNDDCAICWDSMQAARKLPCGHLFHNSCLRSWLEQDTSCPTCRMSLNIADNNRVREEHQGENLDENLVPVAAAEGRPRLNQHNHFFHFDGSRIASWLPSFSVEVMHTTNILGITQASNSQLNAMAHQIQEMFPQVPYHLVLQDLQLTRSVEITTDNILEGRIQVPFPTQRSDSIRPALNSPVERPSSDQEEGETSAQTERVPLDLSPRLEETLDFGEVEVEPSEVEDFEARGSRFSKSADERQRMLVQRKDELLQQARKRFLNKSSEDDAASESFLPSEGASSDPVTLRRRMLAAAAERRLQKQQTS [AMFR]”: the “solubility in G1/S (log2)” value with HeLa Kyoto [1] was -0.387. The melting temperature with HeLa Kyoto [2] (cell cycle stage: G1/S) and in the data set with HeLa Kyoto [2] (cell cycle stage: mitosis) was 51.3 °C throughout. Also, in the data set with HeLa Kyoto [3], the “solubility change mitosis (log2)” value is -0.081. The thermal stability score was 0.15 in the data set on HeLa Kyoto [4] (setting [5]) and -0.174 with HeLa Kyoto [4] (cell cycle stage: mitosis).
Consider “MSSPQAPEDGQGCGDRGDPPGDLRSVLVTTVLNLEPLDEDLFRGRHYWVPAKRLFGGQIVGQALVAAAKSVSEDVHVHSLHCYFVRAGDPKLPVLYQVERTRTGSSFSVRSVKAVQHGKPIFICQASFQQAQPSPMQHQFSMPTVPPPEELLDCETLIDQYLRDPNLQKRYPLALNRIAAQEVPIEIKPVNPSPLSQLQRMEPKQMFWVRARGYIGEGDMKMHCCVAAYISDYAFLGTALLPHQWQHKVHFMVSLDHSMWFHAPFRADHWMLYECESPWAGGSRGLVHGRLWRQDGVLAVTCAQEGVIRVKPQVSESKL [ACOT8]”, for which the “solubility in G1/S (log2)” value in the data set with HeLa Kyoto [1] was -0.0523. For the same sequence, the figures for the melting temperature in the data set with HeLa Kyoto [2] (cell cycle stage: G1/S) and with HeLa Kyoto [2] (cell cycle stage: mitosis) were 51.9 °C and 53.8 °C, respectively. Further, in the data set with HeLa Kyoto [3], the “solubility change mitosis (log2)” value was -0.588. In addition, the figures for the thermal stability score in the data set on HeLa Kyoto [4] (setting [5]) and with HeLa Kyoto [4] (cell cycle stage: mitosis) were 0.114 and -0.515, respectively.
On to “MADFLPSRSVLSVCFPGCLLTSGEAEQQRKSKEIDKCLSREKTYVKRLVKILLLGAGESGKSTFLKQMRIIHGQDFDQRAREEFRPTIYSNVIKGMRVLVDAREKLHIPWGDNSNQQHGDKMMSFDTRAPMAAQGMVETRVFLQYLPAIRALWADSGIQNAYDRRREFQLGESVKYFLDNLDKLGEPDYIPSQQDILLARRPTKGIHEYDFEIKNVPFKMVDVGGQRSERKRWFECFDSVTSILFLVSSSEFDQVLMEDRLTNRLTESLNIFETIVNNRVFSNVSIILFLNKTDLLEEKVQIVSIKDYFLEFEGDPHCLRDVQKFLVECFRNKRRDQQQKPLYHHFTTAINTENIRLVFRDVKDTILHDNLKQLMLQ [GNA13]”, for which, in the data set on HeLa Kyoto [1], the “solubility in G1/S (log2)” value is -0.176. Besides, the melting temperature with HeLa Kyoto [2] (cell cycle stage: G1/S) stood at 53.7 °C; in the data set on HeLa Kyoto [2] (cell cycle stage: mitosis), 53.5 °C. Further, in the data set with HeLa Kyoto [3], the “solubility change mitosis (log2)” value was -0.27. Besides, the thermal stability score stood at 1.07 with HeLa Kyoto [4] (setting [5]) and 1.56 in the data set with HeLa Kyoto [4] (cell cycle stage: mitosis).
With “MSAQAQMRAMLDQLMGTSRDGDTTRQRIKFSDDRVCKSHLLNCCPHDVLSGTRMDLGECLKVHDLALRADYEIASKEQDFFFELDAMDHLQSFIADCDRRTEVAKKRLAETQEEISAEVAAKAERVHELNEEIGKLLAKVEQLGAEGNVEESQKVMDEVEKARAKKREAEEVYRNSMPASSFQQQKLRVCEVCSAYLGLHDNDRRLADHFGGKLHLGFIEIREKLEELKRVVAEKQEKRNQERLKRREEREREEREKLRRSRSHSKNPKRSRSREHRRHRSRSMSRERKRRTRSKSREKRHRHRSRSSSRSRSRSHQRSRHSSRDRSRERSKRRSSKERFRDQDLASCDRDRSSRDRSPRDRDRKDKKRSYESANGRSEDRRSSEEREAGEI [LUC7L2]”, in the data set with HeLa Kyoto [1], the “solubility in G1/S (log2)” value was -0.803. Besides, the melting temperature is 48.6 °C in the data set with HeLa Kyoto [2] (cell cycle stage: G1/S) and 50.7 °C in the data set on HeLa Kyoto [2] (cell cycle stage: mitosis). The “solubility change mitosis (log2)” value with HeLa Kyoto [3] is 0.251. Also, the values for the thermal stability score in the data set on HeLa Kyoto [4] (setting [5]) and in the data set with HeLa Kyoto [4] (cell cycle stage: mitosis) were 2.1 and 3.71, respectively.
Turning to “MDNYADLSDTELTTLLRRYNIPHGPVVGSTRRLYEKKIFEYETQRRRLSPPSSSAASSYSFSDLNSTRGDADMYDLPKKEDALLYQSKGYNDDYYEESYFTTRTYGEPESAGPSRAVRQSVTSFPDADAFHHQVHDDDLLSSSEEECKDRERPMYGRDSAYQSITHYRPVSASRSSLDLSYYPTSSSTSFMSSSSSSSSWLTRRAIRPENRAPGAGLGQDRQVPLWGQLLLFLVFVIVLFFIYHFMQAEEGNPF [EMD]”, in the data set with HeLa Kyoto [1], the “solubility in G1/S (log2)” value was -0.273. Besides, the melting temperature in the data set on HeLa Kyoto [2] (cell cycle stage: G1/S) worked out at 52.4 °C; in the data set on HeLa Kyoto [2] (cell cycle stage: mitosis), 51.7 °C. In the data set on HeLa Kyoto [3], the “solubility change mitosis (log2)” value was found to be 0.383. Also, the thermal stability score in the data set with HeLa Kyoto [4] (setting [5]) was -0.609; with HeLa Kyoto [4] (cell cycle stage: mitosis), -0.468.
Consider “MATSSMSKGCFVFKPNSKKRKISLPIEDYFNKGKNEPEDSKLRFETYQLIWQQMKSENERLQEELNKNLFDNLIEFLQKSHSGFQKNSRDLGGQIKLREIPTAALVLGVNVTDHDLTFGSLTEALQNNVTPYVVSLQAKDCPDMKHFLQKLISQLMDCCVDIKSKEEESVHVTQRKTHYSMDSLSSWYMTVTQKTDPKMLSKKRTTSSQWQSPPVVVILKDMESFATKVLQDFIIISSQHLHEFPLILIFGIATSPIIIHRLLPHAVSSLLCIELFQSLSCKEHLTTVLDKLLLTTQFPFKINEKVLQVLTNIFLYHDFSVQNFIKGLQLSLLEHFYSQPLSVLCCNLPEAKRRINFLSNNQCENIRRLPSFRRYVEKQASEKQVALLTNERYLKEETQLLLENLHVYHMNYFLVLRCLHKFTSSLPKYPLGRQIRELYCTCLEKNIWDSEEYASVLQLLRMLAKDELMTILEKCFKVFKSYCENHLGSTAKRIEEFLAQFQSLDETKEEEDASGSQPKGLQKTDLYHLQKSLLEMKELRRSKKQTKFEVLRENVVNFIDCLVREYLLPPETQPLHEVVYFSAAHALREHLNAAPRIALHTALNNPYYYLKNEALKSEEGCIPNIAPDICIAYKLHLECSRLINLVDWSEAFATVVTAAEKMDANSATSEEMNEIIHARFIRAVSELELLGFIKPTKQKTDHVARLTWGGC [ORC3]”, for which, in the data set with HeLa Kyoto [1], the “solubility in G1/S (log2)” value is -0.303. The melting temperature in the data set on HeLa Kyoto [2] (cell cycle stage: G1/S) is 48 °C; with HeLa Kyoto [2] (cell cycle stage: mitosis), 48.7 °C. The “solubility change mitosis (log2)” value in the data set on HeLa Kyoto [3] was -0.145. Besides, the thermal stability score in the data set with HeLa Kyoto [4] (setting [5]) was 1.65; in the data set with HeLa Kyoto [4] (cell cycle stage: mitosis), 2.89.
